In patent publication US6903135B2, “Methods and products related to 16-HETE analogs” (Board of Regents, The University of Texas System, priority 1998, dated 2005):

Test system: rabbit model of thromboembolic stroke
Test: Rabbit model of thromboembolic stroke (clot embolization)
Assay type: in vivo
Details: 16-HETE 1 mg/kg per minute for 1 h from 1 h after embolization; tPA 6.3 mg/kg at 3-5 h; FIG. 3
Protocol: New Zealand rabbits of either sex, weighing 3-4 kilograms were used for the study. Prior to the start of the experiment, the rabbits were divided into three groups, those that were administered both 16-HETE at a rate of 1 mg/kg per minute for one hour and tPA (Genentech, Inc., San Francisco, Calif.) at a concentration of 6.3 mg/kg, tPA alone, or vehicle.
On the day of treatment the animals were fasted for 12 hours with free access to water and then anesthetized with an intramuscular solution of ketamine (50 mg/kg), acepromazine (20 mg) and xylazine (5 mg/kg). This solution was subsequently used to maintain a surgical depth of anesthesia as determined by responses to various physiologic and autonomic stimuli, including mean arterial pressure and response to paw pinch.
The animals were prepared for surgery by introducing femoral venous and arterial catheters (PE50 and 90, respectively; Clay Adams, Parsippany, N.J.). The catheters were placed for subsequent blood sampling, including blood gas and arterial pressure, drug infusions, and fluid replacement.
All animals were tracheotomized and mechanically ventilated in order to maintain arterial blood gases within a physiologic range. Arterial blood gas measurements (pH, pCO2, pO2) were determined, using a Corning 168 blood gas monitor. […]

B1: tPA: tissue plasminogen activator, thrombolytic agent (Genentech, Inc.) (protein, UniProt P00750 36-562, looked up)
Tissue-type plasminogen …: SYQVICRDEKTQMIYQQHQSWLRPVLRSNRVEYCWCNSGRAQCHSVPVKSCSEPRCFNGGTCQQALYFSDFVCQCPEGFAGKCCEIDTRATCYEDQGISYRGTWSTAESGAECTNWNSSALAQKPYSGRRPDAIRLGLGNHNYCRNPDRDSKPWCYVFKAGKYSSEFCSTPACSEGNSDCYFGNGSAYRGTHSLTESGASCLPWNSMILIGKVYTAQNPSAQALGLGKHNYCRNPDGDAKPWCHVLKNRRLTWEYCDVPSCSTCGLRQYSQPQFRIKGGLFADIASHPWQAAIFAKHRRSPGERFLCGGILISSCWILSAAHCFQERFPPHHLTVILGRTYRVVPGEEEQKFEVEKYIVHKEFDDDTYDNDIALLQLKSDSSRCAQESSVVRTVCLPPADLQLPDWTECELSGYGKHEALSPFYSERLKEAHVRLYPSSRCTSQHLLNRTVTDNMLCAGDTRSGGPQANLHDACQGDSGGPLVCLNDGRMTLVGIISWGLGCGQKDVPGVYTKVTNYLDWIRDNMRP
For B1, the brain infarct size was “significantly larger”.
